The record followed here is publication PMC7817217 (Proceedings of the National Academy of Sciences of the …, 2020).

Data set [1] deals with SARS-CoV-2 spike protein receptor binding domain (RBD) (SARS-CoV-2, UniProt P0DTC2 319-541). In words: SPR. To be noted: both partners purified.
Data set [2] deals with the molecule itself. In words: crystal structure.
Data set [3] deals with SARS-CoV-2 spike protein receptor binding domain (RBD) (SARS-CoV-2, UniProt P0DTC2 319-541). In words: SPR. To be noted: both partners purified. The source holds these as a separate data set.
Data set [4] has the same target. The experiment in a line: SPR.

Read-outs that look alike come from different tables or passages of the source.

B1: bat ACE2 from Rhinolophus macrotis, expressed in E. coli and refolded (bACE2-Rm-E. coli) (domain or fragment)
chain: STTEDEAKKFLDKFNSKAEDLSYESSLASWDYNTNISDENVQKMDEAGAKWSAFYEEQSKLAKNYPLEEIQNDTVKRQLQILQQSGSPVLSEDKSKRLNSILNAMSTIYSTGKVCKPNNPQECLLLEPGLDNIMGTSKDYNERLWAWEGWRAEVGKQLRPLYEEYVVLKNEMARGYHYEDYGDYWRRDYETEESSGPGYSRDQLMKDVDRIFTEIKPLYEHLHAYVRAKLMDTYPLHISPTGCLPAHLLGDMWGRFWTNLYPLTVPFGQKPNIDVTDAMLNQGWDANRIFKEAEKFFVSVSLPKMTEGFWNKSMLTEPGDGRKVVCHPTAWDLGKGDFRIKMCTKVTMEDFLTAHHEMGHIQYDMAYASQPYLLRNGANEGFHEAVGEVMSLSVATPKHLKTMGLLSPDFREDDETEINFLLKQALNIVGTLPFTYMLEKWRWMVFKGEIPKEEWMKKWWEMKREIVGVVEPVPHDETYCDPASLFHVANDYSFIRYYTRTIFEFQFHEALCRIAQHNGPLHKCDISNSTDAGKKLHQMLSVGKSQAWTKTLEDIVDSRNMDVGPLLRYFKPLYTWLQEQNRKSYVGWNTDWSPYADQSIKVWISLKSALGEKAYEWNDNEMYLFRSSVAYAMREYFLKTKNQTILFGDENVWVSNLKPRISFNFHVTSPGNVSDIIPRPEVEGAIRMSRSRINDAFRLDDNSLEFLGIQPTLGPPYQPPVTI
In data set [1], B1 showed a koff of 0.132 s⁻¹ and a kon of 102000 M⁻¹ s⁻¹.

B2: bACE2-Rm (bat ACE2 from Rhinolophus macrotis) expressed in E. coli, residues 19 to 741 (domain or fragment)
chain: STTEDEAKKFLDKFNSKAEDLSYESSLASWDYNTNISDENVQKMDEAGAKWSAFYEEQSKLAKNYPLEEIQNDTVKRQLQILQQSGSPVLSEDKSKRLNSILNAMSTIYSTGKVCKPNNPQECLLLEPGLDNIMGTSKDYNERLWAWEGWRAEVGKQLRPLYEEYVVLKNEMARGYHYEDYGDYWRRDYETEESSGPGYSRDQLMKDVDRIFTEIKPLYEHLHAYVRAKLMDTYPLHISPTGCLPAHLLGDMWGRFWTNLYPLTVPFGQKPNIDVTDAMLNQGWDANRIFKEAEKFFVSVSLPKMTEGFWNKSMLTEPGDGRKVVCHPTAWDLGKGDFRIKMCTKVTMEDFLTAHHEMGHIQYDMAYASQPYLLRNGANEGFHEAVGEVMSLSVATPKHLKTMGLLSPDFREDDETEINFLLKQALNIVGTLPFTYMLEKWRWMVFKGEIPKEEWMKKWWEMKREIVGVVEPVPHDETYCDPASLFHVANDYSFIRYYTRTIFEFQFHEALCRIAQHNGPLHKCDISNSTDAGKKLHQMLSVGKSQAWTKTLEDIVDSRNMDVGPLLRYFKPLYTWLQEQNRKSYVGWNTDWSPYADQSIKVWISLKSALGEKAYEWNDNEMYLFRSSVAYAMREYFLKTKNQTILFGDENVWVSNLKPRISFNFHVTSPGNVSDIIPRPEVEGAIRMSRSRINDAFRLDDNSLEFLGIQPTLGPPYQPPVTI
notes: also called bACE2-Rm-E. coli; bat ACE2-E. coli
Take B2: the binding result in data set [2] is “binds”. The Kd in data set [3] was 1300 nM.

B3: bat ACE2 from Rhinolophus macrotis, expressed in insect cells (bACE2-Rm-insect) (domain or fragment)
chain: STTEDEAKKFLDKFNSKAEDLSYESSLASWDYNTNISDENVQKMDEAGAKWSAFYEEQSKLAKNYPLEEIQNDTVKRQLQILQQSGSPVLSEDKSKRLNSILNAMSTIYSTGKVCKPNNPQECLLLEPGLDNIMGTSKDYNERLWAWEGWRAEVGKQLRPLYEEYVVLKNEMARGYHYEDYGDYWRRDYETEESSGPGYSRDQLMKDVDRIFTEIKPLYEHLHAYVRAKLMDTYPLHISPTGCLPAHLLGDMWGRFWTNLYPLTVPFGQKPNIDVTDAMLNQGWDANRIFKEAEKFFVSVSLPKMTEGFWNKSMLTEPGDGRKVVCHPTAWDLGKGDFRIKMCTKVTMEDFLTAHHEMGHIQYDMAYASQPYLLRNGANEGFHEAVGEVMSLSVATPKHLKTMGLLSPDFREDDETEINFLLKQALNIVGTLPFTYMLEKWRWMVFKGEIPKEEWMKKWWEMKREIVGVVEPVPHDETYCDPASLFHVANDYSFIRYYTRTIFEFQFHEALCRIAQHNGPLHKCDISNSTDAGKKLHQMLSVGKSQAWTKTLEDIVDSRNMDVGPLLRYFKPLYTWLQEQNRKSYVGWNTDWSPYAD
Regarding B3, in data set [1], the koff stood at 0.0692 s⁻¹.

B4: bat ACE2 from Rhinolophus macrotis fused to the mouse Fc tag (bACE2-Rm-mFc) (Fc fusion)
chain: STTEDEAKKFLDKFNSKAEDLSYESSLASWDYNTNISDENVQKMDEAGAKWSAFYEEQSKLAKNYPLEEIQNDTVKRQLQILQQSGSPVLSEDKSKRLNSILNAMSTIYSTGKVCKPNNPQECLLLEPGLDNIMGTSKDYNERLWAWEGWRAEVGKQLRPLYEEYVVLKNEMARGYHYEDYGDYWRRDYETEESSGPGYSRDQLMKDVDRIFTEIKPLYEHLHAYVRAKLMDTYPLHISPTGCLPAHLLGDMWGRFWTNLYPLTVPFGQKPNIDVTDAMLNQGWDANRIFKEAEKFFVSVSLPKMTEGFWNKSMLTEPGDGRKVVCHPTAWDLGKGDFRIKMCTKVTMEDFLTAHHEMGHIQYDMAYASQPYLLRNGANEGFHEAVGEVMSLSVATPKHLKTMGLLSPDFREDDETEINFLLKQALNIVGTLPFTYMLEKWRWMVFKGEIPKEEWMKKWWEMKREIVGVVEPVPHDETYCDPASLFHVANDYSFIRYYTRTIFEFQFHEALCRIAQHNGPLHKCDISNSTDAGKKLHQMLSVGKSQAWTKTLEDIVDSRNMDVGPLLRYFKPLYTWLQEQNRKSYVGWNTDWSPYAD
The molecule B4 gave an off-rate (koff) in data set [1] of 0.137 s⁻¹.

B5: bACE2-Rm (bat ACE2 from Rhinolophus macrotis) expressed in insect cells, residues 19 to 615 (domain or fragment)
chain: STTEDEAKKFLDKFNSKAEDLSYESSLASWDYNTNISDENVQKMDEAGAKWSAFYEEQSKLAKNYPLEEIQNDTVKRQLQILQQSGSPVLSEDKSKRLNSILNAMSTIYSTGKVCKPNNPQECLLLEPGLDNIMGTSKDYNERLWAWEGWRAEVGKQLRPLYEEYVVLKNEMARGYHYEDYGDYWRRDYETEESSGPGYSRDQLMKDVDRIFTEIKPLYEHLHAYVRAKLMDTYPLHISPTGCLPAHLLGDMWGRFWTNLYPLTVPFGQKPNIDVTDAMLNQGWDANRIFKEAEKFFVSVSLPKMTEGFWNKSMLTEPGDGRKVVCHPTAWDLGKGDFRIKMCTKVTMEDFLTAHHEMGHIQYDMAYASQPYLLRNGANEGFHEAVGEVMSLSVATPKHLKTMGLLSPDFREDDETEINFLLKQALNIVGTLPFTYMLEKWRWMVFKGEIPKEEWMKKWWEMKREIVGVVEPVPHDETYCDPASLFHVANDYSFIRYYTRTIFEFQFHEALCRIAQHNGPLHKCDISNSTDAGKKLHQMLSVGKSQAWTKTLEDIVDSRNMDVGPLLRYFKPLYTWLQEQNRKSYVGWNTDWSPYAD
As for B5, the dissociation constant (Kd) in data set [3] came out at 1500 nM.

B6: bACE2-Rm residues 19 to 615 fused to the mouse Fc tag (bACE2-Rm-mFc) (Fc fusion)
chain: STTEDEAKKFLDKFNSKAEDLSYESSLASWDYNTNISDENVQKMDEAGAKWSAFYEEQSKLAKNYPLEEIQNDTVKRQLQILQQSGSPVLSEDKSKRLNSILNAMSTIYSTGKVCKPNNPQECLLLEPGLDNIMGTSKDYNERLWAWEGWRAEVGKQLRPLYEEYVVLKNEMARGYHYEDYGDYWRRDYETEESSGPGYSRDQLMKDVDRIFTEIKPLYEHLHAYVRAKLMDTYPLHISPTGCLPAHLLGDMWGRFWTNLYPLTVPFGQKPNIDVTDAMLNQGWDANRIFKEAEKFFVSVSLPKMTEGFWNKSMLTEPGDGRKVVCHPTAWDLGKGDFRIKMCTKVTMEDFLTAHHEMGHIQYDMAYASQPYLLRNGANEGFHEAVGEVMSLSVATPKHLKTMGLLSPDFREDDETEINFLLKQALNIVGTLPFTYMLEKWRWMVFKGEIPKEEWMKKWWEMKREIVGVVEPVPHDETYCDPASLFHVANDYSFIRYYTRTIFEFQFHEALCRIAQHNGPLHKCDISNSTDAGKKLHQMLSVGKSQAWTKTLEDIVDSRNMDVGPLLRYFKPLYTWLQEQNRKSYVGWNTDWSPYAD
notes: also called bACE2-Rm-HEK293T cells; bACE2-Rm-WT
For the molecule B6, in data set [3], the Kd came to 2780 nM.

B7: bACE2 from Rhinolophus affinis (bACE2-Ra) (receptor)
chain: STTEDRAKIFLDNFNHEAEDLSYQSSLASWEYNTNISDENVQKMDEAGAKWSAFYEEQSKLAKNYPLEEIQTVPVKLQLQILQQSGSPVLSEDKSKRLNSILNAMSTIYSTGKVCKPNNPQECFLLEPGLDNIMGTSKDYNERLWAWEGWRAEVGKQLRPLYEEYVVLKNEMARGYHYEDYGDYWRRDYETEESSGSGYSRDQLMKDVDRIFTEIKPLYEHLHAYVRTKLMDTYPFHISPTGCLPAHLLGDMWGRFWTNLYPLTVPFGQKPNIDVTDAMVNQGWDANRIFKEAEKFFVSVGLPNMTEGFWNNSMLTEPGDGRKVVCHPTAWDLGKGDFRIKMCTKVTMEDFLTAHHEMGHIQYDMAYATQPYLLRNGANEGFHEAVGEVMSLSVATPKHLKTMGLLSPDFLEDNETEINFLLKQALNIVGTLPFTYMLEKWRWMVFRGEIPKEEWMKKWWEMKRDLVGVVEPVPHDETYCDPASLFHVANDYSFIRYYTRTIFEFQFHEALCRIAQHDGPLHKCDISNSTDAGKKLHQMLSVGKSQPWTVTLKDIVDSRNMDVGPLLRYFEPLYTWLQEQNRKSHVGWNTDWSPYSD
As for B7, binding in data set [4] was put at a Kd of 440 nM.
